Laboratory results taken from paper PMC7954794, “Protein context shapes the specificity of SH3 domain-mediated interactions in vivo” (Nature Communications, 2021).

B1: HSE1 (protein, UniProt P38753 2-452, looked up)
Class E vacuolar …: SSSAIKIRNALLKATDPKLRSDNWQYILDVCDLVKEDPEDNGQEVMSLIEKRLEQQDANVILRTLSLTVSLAENCGSRLRQEISSKNFTSLLYALIESHSVHITLKKAVTDVVKQLSDSFKDDPSLRAMGDLYDKIKRKAPYLVQPNVPEKHNMSTQADNSDDEELQKALKMSLFEYEKQKKLQEQEKESAEVLPQQQQQHQQQNQAPAHKIPAQTVVRRVRALYDLTTNEPDELSFRKGDVITVLEQVYRDWWKGALRGNMGIFPLNYVTPIVEPSKEEIEKEKNKEAIVFSQKTTIDQLHNSLNAASKTGNSNEVLQDPHIGDMYGSVTPLRPQVTRMLGKYAKEKEDMLSLRQVLANAERSYNQLMDRAANAHISPPVPGPALYAGMTHANNTPVMPPQRQSYQSNEYSPYPSNLPIQHPTNSANNTPQYGYDLGYSVVSQPPPGYEQ
B2: HOF1 (protein, UniProt Q05080 1-669, looked up)
Cytokinesis protein 2: MSYSYEACFWDPNDNGVNILLGHISQGIRSCDSMILFFKQRSELEKDYARRLGAITGKLDKDIGTNMDYGKLNETFNVVLSVEKARAQSHSKQSEILFRQIYTDTKAFAANLQARYTTLSGKIERLRMDKFNKKKGCEVLQKKLQDAQIRFRDLQLNENNMIGAKRVEHNKRELLKWESNSQEYKVQLDVLKQEYKASQKFWIHEWAQLSCELQEMENARISFLQSKLQQFATSSMETYILEQTKMDMLTNHLNSFTAADEISTFSKENGTGRLKHKTSKGDMNSSANWAQMSSISTTSKKTESYMDNIRKLSSQLKETENKRKLASIDKYEKPLPSPEVTMATQFRNSTPVIRNETKVVANPTLSLRSSPVQLQSNVDDSVLRQKPDKPRPIVGEEQLKPDEDSKNPDEKGLMVHKRNQSLSSPSESSSSNPTDFSHIKKRQSMESMTTSVSSMANSIDDSQRFAKSWNSSNRKRKSMSHLQVPSSASSRSDDGGRTPNSAHNLNEDDYNTRRDTSTSTILFKPPVAVRGTSRGHTHRQSMIMQDSSNPIEDALYEMERIQSSSKPGTKTGNIMDERGVVRDRGITVTLPIVTSEGFPVIEYAKAMYPLIGNEAPGLANFHKGDYLLITEIVNKDWYKGEVYDNDRIDRNHRIGLIPYNFIQLLHQGL

Test system: Abp1 PPIs
Test: DHFR-PCA of Abp1 SH3-swapped baits (Fig. 2B-D, S2C, S2F);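 as to Protein-protein interaction distance between Abp1 SH3-swapped baits, to ABP1: Euclidean distance between DHFR-PCA score profiles of the baits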;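 as to Protein-protein interaction distance between Abp1 SH3-swapped baits, to BEM1-2: Euclidean distance between DHFR-PCA score profiles of the baits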;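 as to Protein-protein interaction distance between Abp1 SH3-swapped baits, to BOI1: Euclidean distance between DHFR-PCA score profiles of the baits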;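 as to Protein-protein interaction distance between Abp1 SH3-swapped baits, to BZZ1-1: Euclidean distance between DHFR-PCA score profiles of the baits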
Assay type: cell-based, Saccharomyces cerevisiae
Conditions: for Protein-protein interaction distance between Abp1 SH3-swapped baits, to ABP1: Abp1 bait with swapped SH3, distance to bait with ABP1 SH3; for Protein-protein interaction distance between Abp1 SH3-swapped baits, to ABP1 / Protein-protein interaction distance between Abp1 SH3-swapped baits, to BBC1 / Protein-protein interaction distance between Abp1 SH3-swapped baits, to BEM1-1 / Protein-protein interaction distance between Abp1 SH3-swapped baits, to BEM1-2 / Protein-protein interaction distance between Abp1 SH3-swapped baits, to BOI1 / Protein-protein interaction distance between Abp1 SH3-swapped baits, to BOI2 / Protein-protein interaction distance between Abp1 SH3-swapped baits, to BUD14 / Protein-protein interaction distance between Abp1 SH3-swapped baits, to BZZ1-1 / Protein-protein interaction distance between Abp1 SH3-swapped baits, to BZZ1-2 / Protein-protein interaction distance between Abp1 SH3-swapped baits, to CDC25 / Protein-protein interaction distance between Abp1 SH3-swapped baits, to CTTN / Protein-protein interaction distance between Abp1 SH3-swapped baits, to CYK3 / Protein-protein interaction distance between Abp1 SH3-swapped baits, to DBNL / Protein-protein interaction distance between Abp1 SH3-swapped baits, to FUS1 / Protein-protein interaction distance between Abp1 SH3-swapped baits, to HCLS1 / Protein-protein interaction distance between Abp1 SH3-swapped baits, to HOF1 / Protein-protein interaction distance between Abp1 SH3-swapped baits, to HSE1 / Protein-protein interaction distance between Abp1 SH3-swapped baits, to LSB1 / Protein-protein interaction distance between Abp1 SH3-swapped baits, to LSB3 / Protein-protein interaction distance between Abp1 SH3-swapped baits, to MYO3 / Protein-protein interaction distance between Abp1 SH3-swapped baits, to MYO5 / Protein-protein interaction distance between Abp1 SH3-swapped baits, to NBP2 / Protein-protein interaction distance between Abp1 SH3-swapped baits, to PEX13 / Protein-protein interaction distance between Abp1 SH3-swapped baits, to PIN3 / Protein-protein interaction distance between Abp1 SH3-swapped baits, to RVS167 / Protein-protein interaction distance between Abp1 SH3-swapped baits, to SDC25 / Protein-protein interaction distance between Abp1 SH3-swapped baits, to SHO1 / Protein-protein interaction distance between Abp1 SH3-swapped baits, to SLA1-1 / Protein-protein interaction distance between Abp1 SH3-swapped baits, to SLA1-2 / Protein-protein interaction distance between Abp1 SH3-swapped baits, to SLA1-3 / Protein-protein interaction distance between Abp1 SH3-swapped baits, to YSC84: sheet Fig2C; for Protein-protein interaction distance between Abp1 SH3-swapped baits, to BBC1: distance to Abp1 bait with BBC1 SH3; for Protein-protein interaction distance between Abp1 SH3-swapped baits, to BEM1-1: distance to Abp1 bait with BEM1-1 SH3; for Protein-protein interaction distance between Abp1 SH3-swapped baits, to BEM1-2: distance to Abp1 bait with BEM1-2 SH3; for Protein-protein interaction distance between Abp1 SH3-swapped baits, to BOI1: distance to Abp1 bait with BOI1 SH3; for Protein-protein interaction distance between Abp1 SH3-swapped baits, to BOI2: distance to Abp1 bait with BOI2 SH3; for Protein-protein interaction distance between Abp1 SH3-swapped baits, to BUD14: distance to Abp1 bait with BUD14 SH3; for Protein-protein interaction distance between Abp1 SH3-swapped baits, to BZZ1-1: distance to Abp1 bait with BZZ1-1 SH3; for Protein-protein interaction distance between Abp1 SH3-swapped baits, to BZZ1-2: distance to Abp1 bait with BZZ1-2 SH3; for Protein-protein interaction distance between Abp1 SH3-swapped baits, to CDC25: distance to Abp1 bait with CDC25 SH3; for Protein-protein interaction distance between Abp1 SH3-swapped baits, to CTTN: distance to Abp1 bait with CTTN SH3; for Protein-protein interaction distance between Abp1 SH3-swapped baits, to CYK3: distance to Abp1 bait with CYK3 SH3; for Protein-protein interaction distance between Abp1 SH3-swapped baits, to DBNL: distance to Abp1 bait with DBNL SH3; for Protein-protein interaction distance between Abp1 SH3-swapped baits, to FUS1: distance to Abp1 bait with FUS1 SH3; for Protein-protein interaction distance between Abp1 SH3-swapped baits, to HCLS1: distance to Abp1 bait with HCLS1 SH3; for Protein-protein interaction distance between Abp1 SH3-swapped baits, to HOF1: distance to Abp1 bait with HOF1 SH3; for Protein-protein interaction distance between Abp1 SH3-swapped baits, to HSE1: distance to Abp1 bait with HSE1 SH3; for Protein-protein interaction distance between Abp1 SH3-swapped baits, to LSB1: distance to Abp1 bait with LSB1 SH3; for Protein-protein interaction distance between Abp1 SH3-swapped baits, to LSB3: distance to Abp1 bait with LSB3 SH3; for Protein-protein interaction distance between Abp1 SH3-swapped baits, to MYO3: distance to Abp1 bait with MYO3 SH3; for Protein-protein interaction distance between Abp1 SH3-swapped baits, to MYO5: distance to Abp1 bait with MYO5 SH3; for Protein-protein interaction distance between Abp1 SH3-swapped baits, to NBP2: distance to Abp1 bait with NBP2 SH3; for Protein-protein interaction distance between Abp1 SH3-swapped baits, to PEX13: distance to Abp1 bait with PEX13 SH3; for Protein-protein interaction distance between Abp1 SH3-swapped baits, to PIN3: distance to Abp1 bait with PIN3 SH3; for Protein-protein interaction distance between Abp1 SH3-swapped baits, to RVS167: distance to Abp1 bait with RVS167 SH3; for Protein-protein interaction distance between Abp1 SH3-swapped baits, to SDC25: distance to Abp1 bait with SDC25 SH3; for Protein-protein interaction distance between Abp1 SH3-swapped baits, to SHO1: distance to Abp1 bait with SHO1 SH3; for Protein-protein interaction distance between Abp1 SH3-swapped baits, to SLA1-1: distance to Abp1 bait with SLA1-1 SH3; for Protein-protein interaction distance between Abp1 SH3-swapped baits, to SLA1-2: distance to Abp1 bait with SLA1-2 SH3; for Protein-protein interaction distance between Abp1 SH3-swapped baits, to SLA1-3: distance to Abp1 bait with SLA1-3 SH3; for Protein-protein interaction distance between Abp1 SH3-swapped baits, to YSC84: distance to Abp1 bait with YSC84 SH3; for PPIs gained by Abp1 - SH3-dependent PPIs gained by Abp1 / SH3-dependent PPIs - SH3-dependent PPIs gained by Abp1 / SH3-dependent PPIs gained by Abp1: number of PPIs, Abp1 SH3-swapped with the listed SH3, Fig2D,S2F; for PPIs gained by Abp1 - SH3-dependent PPIs gained by Abp1 / SH3-dependent PPIs - SH3-dependent PPIs gained by Abp1: difference; for SH3-dependent PPIs gained by Abp1: DHFR-PCA
Method in brief: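 Yeast DHFR-PCA in which Abp1 baits, carrying their SH3 replaced by CRISPR–Cas9 with one of 27 yeast SH3s or human CTTN, HCLS1 or DBNL SH3s, were mated against 575 SH3-associated DHFR F[3] preys plus 40 negative controls. Four tests were run per PPI. Diploids were selected twice (48 h, 30 °C), then grown 4 days on PCA selection media.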

Row | Molecule | Protein-protein interaction distance between Abp1 SH3-swapped baits, to ABP1 | Protein-protein interaction distance between Abp1 SH3-swapped baits, to BBC1 | Protein-protein interaction distance between Abp1 SH3-swapped baits, to BEM1-1 | Protein-protein interaction distance between Abp1 SH3-swapped baits, to BEM1-2 | Protein-protein interaction distance between Abp1 SH3-swapped baits, to BOI1 | Protein-protein interaction distance between Abp1 SH3-swapped baits, to BOI2 | Protein-protein interaction distance between Abp1 SH3-swapped baits, to BUD14 | Protein-protein interaction distance between Abp1 SH3-swapped baits, to BZZ1-1 | Protein-protein interaction distance between Abp1 SH3-swapped baits, to BZZ1-2 | Protein-protein interaction distance between Abp1 SH3-swapped baits, to CDC25 | Protein-protein interaction distance between Abp1 SH3-swapped baits, to CTTN | Protein-protein interaction distance between Abp1 SH3-swapped baits, to CYK3 | Protein-protein interaction distance between Abp1 SH3-swapped baits, to DBNL | Protein-protein interaction distance between Abp1 SH3-swapped baits, to FUS1 | Protein-protein interaction distance between Abp1 SH3-swapped baits, to HCLS1 | Protein-protein interaction distance between Abp1 SH3-swapped baits, to HOF1 | Protein-protein interaction distance between Abp1 SH3-swapped baits, to HSE1 | Protein-protein interaction distance between Abp1 SH3-swapped baits, to LSB1 | Protein-protein interaction distance between Abp1 SH3-swapped baits, to LSB3 | Protein-protein interaction distance between Abp1 SH3-swapped baits, to MYO3 | further results
1 | B1 | 9.43 | 7.295 | 11.1 | 30.97 | 7.847 | 11.78 | 14.54 | 5.175 | 7.81 | 24.19 | 9.154 | 25.16 | 5.82 | 16.23 | 9.236 | 29.42 | 0.00 | 12.02 | 12.29 | 11.17 | Protein-protein interaction distance between Abp1 SH3-swapped baits, to MYO5: 10.84; Protein-protein interaction distance between Abp1 SH3-swapped baits, to NBP2: 13.88; Protein-protein interaction distance between Abp1 SH3-swapped baits, to PEX13: 8.715; Protein-protein interaction distance between Abp1 SH3-swapped baits, to PIN3: 9.808; Protein-protein interaction distance between Abp1 SH3-swapped baits, to RVS167: 7.315; Protein-protein interaction distance between Abp1 SH3-swapped baits, to SDC25: 31.59; Protein-protein interaction distance between Abp1 SH3-swapped baits, to SHO1: 5.64; Protein-protein interaction distance between Abp1 SH3-swapped baits, to SLA1-1: 27.26; Protein-protein interaction distance between Abp1 SH3-swapped baits, to SLA1-2: 16.63; Protein-protein interaction distance between Abp1 SH3-swapped baits, to SLA1-3: 11.86; Protein-protein interaction distance between Abp1 SH3-swapped baits, to YSC84: 12.83; PPIs gained by Abp1 - SH3-dependent PPIs gained by Abp1: 4; SH3-dependent PPIs - SH3-dependent PPIs gained by Abp1: 1; SH3-dependent PPIs gained by Abp1: 0
2 | B2 | 30.98 | 29.63 | 23.16 | 6.415 | 26.74 | 25.74 | 21.88 | 30.35 | 27.6 | 10.42 | 25.67 | 10.8 | 29.45 | 21.29 | 32.71 | 0.00 | 29.42 | 35.15 | 34.67 | 33.94 | Protein-protein interaction distance between Abp1 SH3-swapped baits, to MYO5: 33.29; Protein-protein interaction distance between Abp1 SH3-swapped baits, to NBP2: 21.63; Protein-protein interaction distance between Abp1 SH3-swapped baits, to PEX13: 33.79; Protein-protein interaction distance between Abp1 SH3-swapped baits, to PIN3: 32.38; Protein-protein interaction distance between Abp1 SH3-swapped baits, to RVS167: 32.19; Protein-protein interaction distance between Abp1 SH3-swapped baits, to SDC25: 7.905; Protein-protein interaction distance between Abp1 SH3-swapped baits, to SHO1: 29.05; Protein-protein interaction distance between Abp1 SH3-swapped baits, to SLA1-1: 9.015; Protein-protein interaction distance between Abp1 SH3-swapped baits, to SLA1-2: 20.72; Protein-protein interaction distance between Abp1 SH3-swapped baits, to SLA1-3: 35.48; Protein-protein interaction distance between Abp1 SH3-swapped baits, to YSC84: 34.92; PPIs gained by Abp1 - SH3-dependent PPIs gained by Abp1: 1; SH3-dependent PPIs - SH3-dependent PPIs gained by Abp1: 4; SH3-dependent PPIs gained by Abp1: 0
